Sequences and labels used below:
B1: SEQ ID NO: 331: L29P variant of the hydrolase from Pseudomonas fluorescens fused to hair binding domain HC263 via a flexible linker (protein)
chain: MSTFVAKDGTQIYFKDWGSGKPVLFSHGWPLDADMWEYQMEYLSSRGYRTIAFDRRGFGRSDQPWTGNDYDTFADDIAQLIEHLDLKEVTLVGFSMGGGDVARYIARHGSARVAGLVLLGAVTPLFGQKPDYPQGVPLDVFARFKTELLKDRAQFISDFNAPFYGINKGQVVSQGVQTQTLQIALLASLKATVDCVTAFAETDFRPDMAKIDVPTLVIHGDGDQIVPFETTGKVAAELIKGAELKVYKDAPHGFAVTHAQQLNEDLLAFLKRGPGSGGAGSPGSAGGPGSPSAQSQLPDKHSGLHERAPQRYGPEPEPEPEPIPEPPKEAPVVIEKPKPKPKPKPKPPAHDHKNQKETHQRHAAGSGGGGSPHHHHHH
B2: SEQ ID NO: 333: L29P variant of Pseudomonas fluorescens hydrolase fused to hair binding domain HC263KtoR via a flexible linker (protein)
chain: B1 chain with K300R, K328R, K336R, K338R, K340R, K342R, K344R, K346R, K353R, K356R
B3: SEQ ID NO: 337: L29P variant of Pseudomonas fluorescens hydrolase fused to the charged peptide (GK)5-His6 via a flexible linker (protein)
chain: MSTFVAKDGTQIYFKDWGSGKPVLFSHGWPLDADMWEYQMEYLSSRGYRTIAFDRRGFGRSDQPWTGNDYDTFADDIAQLIEHLDLKEVTLVGFSMGGGDVARYIARHGSARVAGLVLLGAVTPLFGQKPDYPQGVPLDVFARFKTELLKDRAQFISDFNAPFYGINKGQVVSQGVQTQTLQIALLASLKATVDCVTAFAETDFRPDMAKIDVPTLVIHGDGDQIVPFETTGKVAAELIKGAELKVYKDAPHGFAVTHAQQLNEDLLAFLKRGPGSGGAGSPGSAGGPGSGKGKGKGKGKHHHHHH
B4: SEQ ID NO: 335: L29P variant of Pseudomonas fluorescens hydrolase fused to hair binding domain HC1010 via a flexible linker (protein)
chain: MSTFVAKDGTQIYFKDWGSGKPVLFSHGWPLDADMWEYQMEYLSSRGYRTIAFDRRGFGRSDQPWTGNDYDTFADDIAQLIEHLDLKEVTLVGFSMGGGDVARYIARHGSARVAGLVLLGAVTPLFGQKPDYPQGVPLDVFARFKTELLKDRAQFISDFNAPFYGINKGQVVSQGVQTQTLQIALLASLKATVDCVTAFAETDFRPDMAKIDVPTLVIHGDGDQIVPFETTGKVAAELIKGAELKVYKDAPHGFAVTHAQQLNEDLLAFLKRGPGSGGAGSPGSAGGPGSAQSQLPDKHSGLHERAPQRYGSGTAEIQSSKNPNPHPQRSWTNGSGHNHMQERYTDPQHSPSVNGLGSGHDHKNQKETHQRHAASSHHHHHH
B5: SEQ ID NO: 319: acetyl xylan esterase from Lactococcus lactis fused at its C-terminus to hair binding domain HC263 via a flexible linker (protein)
chain: MTKINNWQDYQGSSLKPEDFDKFWDEKINLVSNHQFEFELIEKNLSSKVVNFYHLWFTAIDGAKIHAQLIVPKNLKEKYPAILQFHGYHCDSGDWVDKIGIVAEGNVVLALDCRGQGGLSQDNIQTMGMTMKGLIVRGIDEGYENLYYVRQFMDLITATKILSEFDFVDETNISAQGASQGGALAVACAALSPLIKKVTATYPFLSDYRKAYELGAEESAFEELPYWFQFKDPLHLREDWFFNQLEYIDIQNLAPRIKAEVIWILGGKDTVVPPITQMAAYNKIQSKKSLYVLPEYGHEYLPKISDWLRENQGPGSGGAGSPGSAGGPGSPSAQSQLPDKHSGLHERAPQRYGPEPEPEPEPIPEPPKEAPVVIEKPKPKPKPKPKPPAHDHKNQKETHQRHAAGSGGGGSPHHHHHH
B6: SEQ ID NO: 329: S54V variant of Mycobacterium smegmatis aryl esterase fused to the charged peptide (GK)5-His6 via a flexible linker (protein)
chain: MAKRILCFGDSLTWGWVPVEDGAPTERFAPDVRWTGVLAQQLGADFEVIEEGLVARTTNIDDPTDPRLNGASYLPSCLATHLPLDLVIIMLGTNDTKAYFRRTPLDIALGMSVLVTQVLTSAGGVGTTYPAPKVLVVSPPPLAPMPHPWFQLIFEGGEQKTTELARVYSALASFMKVPFFDAGSVISTDGVDGIHFTEANNRDLGVALAEQVRSLLGPGSGGAGSPGSAGGPGSGKGKGKGKGKHHHHHH
B7: SEQ ID NO: 321: acetyl xylan esterase from Mesorhizobium loti fused at its C-terminus to hair binding domain HC263 via a flexible linker (protein)
chain: MPFPDLIQPELGAYVSSVGMPDDFAQFWTSTIAEARQAGGEVSIVQAQTTLKAVQSFDVTFPGYGGHPIKGWLILPTHHKGRLPLVVQYIGYGGGRGLAHEQLHWAASGFAYFRMDTRGQGSDWSVGETADPVGSTSSIPGFMTRGVLDKNDYYYRRLFTDAVRAIDALLGLDFVDPERIAVCGDSQGGGISLAVGGIDPRVKAVMPDVPFLCDFPRAVQTAVRDPYLEIVRFLAQHREKKAAVFETLNYFDCVNFARRSKAPALFSVALMDEVCPPSTVYGAFNAYAGEKTITEYEFNNHEGGQGYQERQQMTWLSRLFGVGGPGSGGAGSPGSAGGPGSPSAQSQLPDKHSGLHERAPQRYGPEPEPEPEPIPEPPKEAPVVIEKPKPKPKPKPKPPAHDHKNQKETHQRHAAGSGGGGSPHHHHHH
B8: SEQ ID NO: 327: S54V variant of Mycobacterium smegmatis aryl esterase fused to hair binding domain HC1010 via a flexible linker (protein)
chain: MAKRILCFGDSLTWGWVPVEDGAPTERFAPDVRWTGVLAQQLGADFEVIEEGLVARTTNIDDPTDPRLNGASYLPSCLATHLPLDLVIIMLGTNDTKAYFRRTPLDIALGMSVLVTQVLTSAGGVGTTYPAPKVLVVSPPPLAPMPHPWFQLIFEGGEQKTTELARVYSALASFMKVPFFDAGSVISTDGVDGIHFTEANNRDLGVALAEQVRSLLGPGSGGAGSPGSAGGPGSAQSQLPDKHSGLHERAPQRYGSGTAEIQSSKNPNPHPQRSWTNGSGHNHMQERYTDPQHSPSVNGLGSGHDHKNQKETHQRHAASSHHHHHH
B9: SEQ ID NO: 325: S54V variant of Mycobacterium smegmatis aryl esterase fused to hair binding domain HC263KtoR via a flexible linker (protein)
chain: MAKRILCFGDSLTWGWVPVEDGAPTERFAPDVRWTGVLAQQLGADFEVIEEGLVARTTNIDDPTDPRLNGASYLPSCLATHLPLDLVIIMLGTNDTKAYFRRTPLDIALGMSVLVTQVLTSAGGVGTTYPAPKVLVVSPPPLAPMPHPWFQLIFEGGEQKTTELARVYSALASFMKVPFFDAGSVISTDGVDGIHFTEANNRDLGVALAEQVRSLLGPGSGGAGSPGSAGGPGSPSAQSQLPDRHSGLHERAPQRYGPEPEPEPEPIPEPPREAPVVIERPRPRPRPRPRPPAHDHRNQRETHQRHAAGSGGGGSPHHHHHH
B10: SEQ ID NO: 317: acetyl xylan esterase from Bacillus pumilus fused at its C-terminus to hair binding domain HC263 via a flexible linker (protein)
chain: MQLFDLSLEELKKYKPKKTARPDFSDFWKKSLEELRQVEAEPTLESYDYPVKGVKVYRLTYQSFGHSKIEGFYAVPDQTGPHPALVRFHGYNASYDGGIHDIVNWALHGYATFGMLVRGQGGSEDTSVTPGGHALGWMTKGILSKDTYYYRGVYLDAVRALEVIQSFPEVDEHRIGVIGGSQGGALAIAAAALSDIPKVVVADYPYLSNFERAVDVALEQPYLEINSYFRRNSDPKVEEKAFETLSYFDLINLAGWVKQPTLMAIGLIDKITPPSTVFAAYNHLETDKDLKVYRYFGHEFIPAFQTEKLSFLQKHLLLSTGPGSGGAGSPGSAGGPGSPSAQSQLPDKHSGLHERAPQRYGPEPEPEPEPIPEPPKEAPVVIEKPKPKPKPKPKPPAHDHKNQKETHQRHAAGSGGGGSPHHHHHH

Changes are numbered by the printed parent chain. In names and notes the source's numbering stands.

A short description of one series: Perhydrolase activity of targeted hydrolases, ABTS assay. The format is biochemical. The note with it: 1 m Na acetate at pH 5.5 instead of triacetin. The method, then: The ABTS assay was performed as follows: hair samples treated as described above were transferred to new 2-mL microcentrifuge tubes (Eppendorf Protein LoBind; Eppendorf North America, Hauppauge, N.Y.) To each tube was added 480 μL of PAH buffer ([…]), 14 μL of 39% hydrogen peroxide (Sigma 3410), and 6 μL triacetin (Sigma-Aldrich W200700). The perhydrolase reaction was allowed to proceed for 10 minutes at room temperature (˜22-25° C.). The reaction was stopped by diluting aliquots 10×, 100× and 1000× with 10 mM phosphoric acid. For detection 50 μL of 1 M acetic acid, 50 μL of 40 mg/mL potassium iodide, and 50 μL of 4 mM ABTS (2,2′-azino-bis(3-ethylbenzthiazoline-6-sulphonic acid; Sigma, St Louis, Mo.) were added to 50 μL of the above dilutions. Color was allowed to develop for 10 minutes and read in a spectrophotometer at 405 nm. Values from no-enzyme controls were subtracted to yield values attributable only to enzyme activity. A standard curve of OD 405 nm vs PAA concentration in ppm yielded a conversion factor of 8.75, such that an OD 405 nm of 1.0 corresponded to approximately 8.75 ppm PAA. This value was then multiplied by the appropriate dilution to arrive at the PAA concentration in the perhydrolase reaction.
The perhydrolase activity of the enzymes targeted to hair with a variety of targeting domains produced as described in Example 32 was measured with the ABTS assay.
The molecule B1 yielded a Specific perhydrolase activity of 0.37 µmol/mg/min.
The same measure, in the same setting: as for B2, the figure is 1.45 µmol/mg/min; as for B3, 2.65 µmol/mg/min; as for B4, 1.5 µmol/mg/min.

Staying with this series, now noted: triacetin at pH 7.5.
With B5, the Specific perhydrolase activity was 99 µmol/mg/min.
As to B6, the Specific perhydrolase activity came to 264 µmol/mg/min.
Molecule B7 displayed a Specific perhydrolase activity of 34 µmol/mg/min.
The molecule B8 displayed a Specific perhydrolase activity of 20 µmol/mg/min.
The same measure, in the same setting: as for B9, the figure is 46 µmol/mg/min.
The same measure, in the same setting: with B10 the figure was 40 µmol/mg/min.

The values are drawn from patent US20130171217A1, “ENZYMATIC PERACID GENERATION FOR USE IN SKIN CARE PRODUCTS” (E I DU PONT DE NEMOURS AND COMPANY, priority 2010, published 2013).
